Values of other authors as cited in patent US20060222641A1, “Method and composition for preventing or reducing edema, deep vein thrombosis and/or pulmonary embolism” (priority 2003, published 2006).

Tested on: fibrinolytic activity in the plasma
Details: oral administration

B1: nattokinase: serine proteinase of approximately 275 amino acids, approximately 27.7 kDa, fibrinolytic enzyme from natto (Bacillus subtilis) (protein)
chain: AQSVPYGISQIKAPALHSQGYTGSNVKVAVIDSGIDSSHPDLNVRGGASFVPSETNPYQDGSSHGTHVAGTIAALNNSIGVLGVAPSASYAVKVLDSTGSGQYSWIINGIEWAISNNMGVINMSLGGPSGSTALKTVVDKAVSSGIVVAAAAGNEGSSGSSSTVGYPAKYPSTIAVGAVNSSNQRASFSSAGSELDVMAPGVSIQSTLPGGTYGAYNGTSMATPHVAGAAALILSKHPTWTNAQVRDRLESTATYLGNSFYYGKGLINVQAAAQ
modifications: Bacillus Subtilis
  Fibrinolytic activity in the plasma: significant enhancement
